{"source": "IntAct's records for PubMed 22089237", "parents": {"B1": {"name": "Alpha-1A adrenergic receptor (Homo sapiens), P35348 (parent)", "chain": "MVFLSGNASDSSNCTQPPAPVNISKAILLGVILGGLILFGVLGNILVILSVACHRHLHSVTHYYIVNLAVADLLLTSTVLPFSAIFEVLGYWAFGRVFCNIWAAVDVLCCTASIMGLCIISIDRYIGVSYPLRYPTIVTQRRGLMALLCVWALSLVISIGPLFGWRQPAPEDETICQINEEPGYVLFSALGSFYLPLAIILVMYCRVYVVAKRESRGLKSGLKTDKSDSEQVTLRIHRKNAPAGGSGMASAKTKTHFSVRLLKFSREKKAAKTLGIVVGCFVLCWLPFFLVMPIGSFFPDFKPSETVFKIVFWLGYLNSCINPIIYPCSSQEFKKAFQNVLRIQCLCRKQSSKHALGYTLHPPSQAVEGQHKDMVRIPVGSRETFYRISKTDGVCEWKFFSSMPRGSARITVSKDQSSCTTARVRSKSFLQVCCCVGPSTPSLDKNHQVPTIKVHTISLSENGEEV"}}, "data": [{"variants_of": "B1", "settings": "with arrb1_rat Arrb1, P29066", "values": [{"variant": "G247R", "effect of a mutation on the interaction": "increasing interaction strength"}]}]}
